The source of these data is patent publication US20110138496, “POLYPEPTIDE FOR IMPROVING TOLERANCE TO IRON DEFICIENCY IN PLANTS, AND USE THEREOF” (published 2011).

For data set [1], the target named is T1, IDEF1 (AK107456) B3-domain fragment, MBP fusion (Oryza sativa, UniProt Q6Z1Z3 SEQ:141-362).
T1 chain: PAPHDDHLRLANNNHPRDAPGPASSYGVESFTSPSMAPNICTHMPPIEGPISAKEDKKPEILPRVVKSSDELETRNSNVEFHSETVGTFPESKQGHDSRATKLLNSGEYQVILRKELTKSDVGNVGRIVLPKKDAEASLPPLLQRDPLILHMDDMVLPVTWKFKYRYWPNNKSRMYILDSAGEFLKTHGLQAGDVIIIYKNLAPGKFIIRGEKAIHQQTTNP
As to the kind of experiment: competition; 30-fold excess mutated IDE1 competitors; CATGC specifically recognized. To be noted: tags: MBP (pMAL-c2). The procedure:
(§1) Next, the following operation was carried out for gel shift assay. First, partial ORFs containing a B3 DNA-binding domains of the respective candidate proteins were obtained by use of the following primers: a primer including the sequences shown in, respectively, SEQ ID NOS: 52 (forward) and 53 (reverse), for the 501st-726th amino acids of OsVP1; a primer including the sequences shown in, respectively, SEQ ID NOS: 54 (forward) and 55 (reverse), for the 141st-362nd amino acids of AK107456; a primer including the sequences shown in, respectively, SEQ ID NOS: 56 (forward) and 57 (reverse), for the 151st-433rd amino acids of AK072874; a primer including the sequences shown in, respectively, SEQ ID NOS: 58 (forward) and 59 (reverse), for the 1st-289th amino acids of AK109920; and a primer including the sequences shown in, respectively, SEQ ID NOS: 60 (forward) and 61 (reverse), for the 287th-672nd amino acids of AK101356. Then, each of the partial ORFs was inserted into pMAL-c2 (New England Biolabs) so as to be fused in frame to a maltose-binding protein (MBP) gene. By using a plasmid thus obtained, a fused protein of each of the candidate proteins and the MBP was produced in accordance with manufacturer's instructions. […]

Data set [2] addresses T2, AK072874 B3-domain fragment, MBP fusion (Oryza sativa, UniProt Q7XKC5 Q7XKC5:151-433).
T2 sequence: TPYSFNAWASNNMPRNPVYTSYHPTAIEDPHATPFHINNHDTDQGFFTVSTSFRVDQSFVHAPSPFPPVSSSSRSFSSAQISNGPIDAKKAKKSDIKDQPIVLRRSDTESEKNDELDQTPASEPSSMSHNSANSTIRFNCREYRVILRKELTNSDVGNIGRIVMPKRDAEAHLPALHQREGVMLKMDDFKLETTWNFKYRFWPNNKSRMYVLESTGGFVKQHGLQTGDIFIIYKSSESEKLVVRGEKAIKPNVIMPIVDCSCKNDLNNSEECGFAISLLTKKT
The data set is described as above. To be noted: tags: MBP (pMAL-c2). The procedure: as §1

The target of data set [3] is T3, OsVP1 B3-domain fragment, MBP fusion (Oryza sativa, UniProt P37398 P37398:501-726).
T3 sequence: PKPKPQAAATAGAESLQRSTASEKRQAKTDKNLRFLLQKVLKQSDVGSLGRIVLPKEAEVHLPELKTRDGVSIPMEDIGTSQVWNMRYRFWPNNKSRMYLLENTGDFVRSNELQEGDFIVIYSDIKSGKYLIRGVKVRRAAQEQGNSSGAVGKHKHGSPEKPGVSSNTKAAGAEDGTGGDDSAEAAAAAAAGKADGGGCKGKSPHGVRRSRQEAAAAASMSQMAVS
As to the kind of experiment: EMSA; no specific binding. To be noted: tags: MBP (pMAL-c2); label: labeled (EMSA probe). On the procedure: as §1
(In general: Mobility shift assays separate free from complexed probe on a gel.)

The target in data set [4] is T1, IDEF1 (AK107456) B3-domain fragment, …. As to the kind of experiment: EMSA; specific binding. To be noted: tags: MBP (pMAL-c2); label: labeled (EMSA probe). On the procedure: as §1
The target in data set [5] is T2, AK072874 B3-domain fragment, MBP fusion. As to the kind of experiment: EMSA; specific binding. To be noted: tags: MBP (pMAL-c2); label: labeled (EMSA probe). The procedure: as §1
The target in data set [6] is T4, IDEF2 NAC domain, MBP fusion (Oryza sativa).
T4 chain: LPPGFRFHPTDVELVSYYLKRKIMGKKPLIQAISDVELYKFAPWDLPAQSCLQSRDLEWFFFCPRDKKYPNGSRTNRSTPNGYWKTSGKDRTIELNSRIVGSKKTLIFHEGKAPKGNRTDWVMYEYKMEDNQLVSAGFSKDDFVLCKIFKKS
As to the kind of experiment: EMSA; 500 ng fusion protein; competition with 30- or 50-fold excess mutants shows CA[A/C]G(TTT) recognized. To be noted: tags: MBP (pMAL-c2); label: labeled. The procedure:
Then, specific binding of IDEF2 to IDE2 was confirmed by the EMSA method. An IDEF2 NAC domain amplified by a primer including the base sequences shown in, respectively, SEQ ID NOS: 64 and 65, was cloned to a pMAL-c2 vector, and was used to produce an IDEF2-MBP fused protein. Then, a labeled […] including the base sequence (SEQ ID NO: 41) including IDE2 was incubated with 500 ng of the IDEF2-MBP fused protein.
Next, competition experiments were carried out by addition of 30-fold or 50-fold excess unlabeled competitors. FIG. 10 and (a) of FIG. 12 show mutations introduced into polynucleotide fragments, which were used as the competitors. The IDE2 probe was incubated with the 30-fold or 50-fold excess unlabeled competitors and 500 ng of the IDEF2-MBP fused protein. FIG. 10 and (b) of FIG. 12 show the result of the competition experiments. As shown in FIG. 10 and (b) of FIG. 12, IDEF2 predominantly recognized a CA[A/C]G(TTT) sequence (SEQ ID NO: 33 or 34) within IDE2.

B1: IDE1 (dsDNA)
DNA 1: ATCAAGCATGCTTCTTGC
DNA 2: GCAAGAAGCATGCTTGAT
As to B1, the binding result in data set [1] and in data set [2] was “binds” in each case.

B2: IDE2-IDE1x2 (tandemly duplicated IDE1 probe) (dsDNA)
DNA 1: AAGCTTGAATTCGATATCTTGAACGGCAAGTTTCACGCTGTCACTATCAAGCATGCTTCTTGCTTGAACGGCAAGTTTCACGCTGTCACTATCAAGCATGCTTCTTGCACGCGTCTCGAGTCGCGAATCG
DNA 2: CGATTCGCGACTCGAGACGCGTGCAAGAAGCATGCTTGATAGTGACAGCGTGAAACTTGCCGTTCAAGCAAGAAGCATGCTTGATAGTGACAGCGTGAAACTTGCCGTTCAAGATATCGAATTCAAGCTT
As to B2, the binding result was “no binding” in data set [3], “binds” in data set [4] and “binds” in data set [5].

B3: IDE2 EMSA probe (dsDNA)
DNA 1: GAGAGTGGGTTGAACGGCAAGTTTCACGCTGTCACTATCGTCCTCG
DNA 2: CGAGGACGATAGTGACAGCGTGAAACTTGCCGTTCAACCCACTCTC
As for B3, the binding result in data set [6] is “binds”.
